Data from patent publication US20030148956A1 (PROCTER AND GAMBLE, published 2003).
Ends that are not written are not given here.

T1: corticotropin releasing factor 2 receptor
T1 sequence (Q13324 whole entry, species assumed, looked up): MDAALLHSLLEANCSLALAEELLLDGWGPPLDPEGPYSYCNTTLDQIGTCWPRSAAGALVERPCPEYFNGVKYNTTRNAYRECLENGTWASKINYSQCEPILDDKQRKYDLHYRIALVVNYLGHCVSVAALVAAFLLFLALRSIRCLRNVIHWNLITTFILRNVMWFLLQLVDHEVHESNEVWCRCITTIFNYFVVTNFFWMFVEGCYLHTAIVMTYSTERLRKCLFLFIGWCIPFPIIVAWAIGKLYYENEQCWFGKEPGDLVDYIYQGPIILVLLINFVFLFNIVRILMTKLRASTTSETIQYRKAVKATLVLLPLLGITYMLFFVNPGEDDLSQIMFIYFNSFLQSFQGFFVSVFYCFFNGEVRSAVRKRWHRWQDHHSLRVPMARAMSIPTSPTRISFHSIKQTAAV


The binders below were run against T1, corticotropin releasing factor 2 … (assay: cell-based or functional assay).

| Binder | CRF2R EC50 [nM] | CRF2R Emax % [%] |
| --- | --- | --- |
| ZGPPISIDLPLHLLRKMIEIEKQEKEKQQATTNARLLDTV (C-terminal amide) [SEQ ID NO 238] | 16.7 | 100 |
| ZGPPISIDLPLYLLRKMIEIEKQEKEKQQATTNARLLDTV (C-terminal amide) [SEQ ID NO 242] | 29 | 94 |
| ZGPPISIDLPLYLLRKMIEIEKQEKEKQQATTNARLLDRV (C-terminal amide) [SEQ ID NO 243] | 16.8 | 100 |
| ZGPPISIDLPLHLLRKMIEIEKQEKEKQQATTNARLLDRV (C-terminal amide) [SEQ ID NO 239] | 13.2 | 100 |
| ZGPPISIDLPHQLLRKMIEIEKQEKEKQQAANNRLLLDTI (C-terminal amide) [SEQ ID NO 212] | 21.3 | 100 |
| ZGPPISIDLPYFLLRKMIEIEKQEKEKQQAANNRLLLDTI (C-terminal amide) [SEQ ID NO 220] | 4.1 | 98 |
| ZGPPISIDLPQFLLRKMIEIEKQEKEKQQAANNRLLLDTI (C-terminal amide) [SEQ ID NO 221] | 8.5 | 100 |
| ZGPPISIDLPFHLLRKMIEIEKQEKEKQQAANNALLLATI (C-terminal amide) [SEQ ID NO 229] | 10.3 | 100 |
| ZGPPISIDLPQYLLRKMIEIEKQEKEKQQAANNALLLATI (C-terminal amide) [SEQ ID NO 227] | 33.6 | 95 |
| ZGPPISIDLPTYLLRKMIEIEKQEKEKQQAANNALLLDTI (C-terminal amide) [SEQ ID NO 232] | 45.3 | 100 |
| ZGPPISIDLPLHLLRKMIEIEKQEKEKQQAANNALLLDTI (C-terminal amide) [SEQ ID NO 240] | 22 | 100 |
| ZGPPISIDLPHFLLRKMIEIEKQEKEKQQAANNRLLLDTI (C-terminal amide) [SEQ ID NO 219] | 7.8 | 98 |
| ZGPPISIDLPYYLLRKMIEIEKQEKEKQQAANNALLLDTI (C-terminal amide) [SEQ ID NO 226] | 7.6 | 100 |
| ZGPPISIDLPAFLLRKMIEIEKQEKEKQQAANNRLLLDTI (C-terminal amide) [SEQ ID NO 222] | 9.4 | 100 |
| ZGPPISIDLPFYLLRKMIEIEKQEKEKQQAANNALLLATI (C-terminal amide) [SEQ ID NO 231] | 5.9 | 100 |
| ZGPPISIDLPQWLLRKMIEIEKQEKEKQQAANNRLLLDTI (C-terminal amide) [SEQ ID NO 213] | 22.3 | 99 |

| Binder | CRF2R EC50 [nM] | CRF2R Emax % [%] |
| --- | --- | --- |
| ZGPPISIDLPWWLLRKMIEIEKQEKEKQQAANNRLLLDTI (C-terminal amide) [SEQ ID NO 216] | 9.9 | 90 |
| ZGPPISIDLPFWLLRKMIEIEKQEKEKQQAANNRLLLDTI (C-terminal amide) [SEQ ID NO 217] | 4.7 | 95 |
| ZGPPISIDLPTYLLRKMIEIEKQEKEKQQAANNALLLATI (C-terminal amide) [SEQ ID NO 233] | 46.1 | 95 |
| ZGPPISIDLPQYLLRKMIEIEKQEKEKQQAANNALLLDTI (C-terminal amide) [SEQ ID NO 224] | 26.9 | 100 |
| ZGPPISIDLPIYLLRKMIEIEKQEKEKQQAANNALLLATI (C-terminal amide) [SEQ ID NO 237] | 22.2 | 93 |
| ZGPPISIDLPYYLLRKMIEIEKQEKEKQQAANNALLLATI (C-terminal amide) [SEQ ID NO 225] | 4.8 | 89 |
| ZGPPISIDLPLWLLRKMIEIEKQEKEKQQAANNRLLLDTI (C-terminal amide) [SEQ ID NO 218] | 4.8 | 96 |
| ZGPPISIDLPLHLLRKMIEIEKQEKEKQQAANNALLLATI (C-terminal amide) [SEQ ID NO 241] | 12.6 | 99 |
| ZGPPISIDLPFHLLRKMIEIEKQEKEKQQAANNALLLDTI (C-terminal amide) [SEQ ID NO 228] | 7.1 | 100 |
| ZGPPISIDLPLELLRKMIEIEKQEKEKQQAANNALLLATI (C-terminal amide) [SEQ ID NO 234] | 20.6 | 100 |
| ZGPPISIDLPFYLLRKMIEIEKQEKEKQQAANNALLLDTI (C-terminal amide) [SEQ ID NO 230] | 8.1 | 100 |
| ZGPPISIDLPIYLLRKMIEIEKQEKEKQQAANNALLLDTI (C-terminal amide) [SEQ ID NO 236] | 40.4 | 97 |
| ZGPPISIDLPLELLRKMIEIEKQEKEKQQAANNALLLDTI (C-terminal amide) [SEQ ID NO 235] | 25.7 | 100 |
| ZGPPISIDLPFFLLRKMIEIEKQEKEKQQAANNRLLLDTI (C-terminal amide) [SEQ ID NO 223] | 3 | 92 |
| ZGPPISIDLPYWLLRKMIEIEKQEKEKQQAANNRLLLDTI (C-terminal amide) [SEQ ID NO 215] | 4 | 100 |
| IVLSLDVVIGLLQILLEQARARAAREQATTNARILARV-NH2 [SEQ ID NO 214] | 74.3 | 60 |

The binders below were run against corticotropin releasing factor 1 receptor (assay: cell-based or functional assay).

| Binder | CRF1R EC50 [nM] | CRF1R Emax % [%] |
| --- | --- | --- |
| ZGPPISIDLPLHLLRKMIEIEKQEKEKQQATTNARLLDTV (C-terminal amide) [SEQ ID NO 238] | 753 | 88 |
| ZGPPISIDLPLYLLRKMIEIEKQEKEKQQATTNARLLDTV (C-terminal amide) [SEQ ID NO 242] | 358 | 99 |
| ZGPPISIDLPLYLLRKMIEIEKQEKEKQQATTNARLLDRV (C-terminal amide) [SEQ ID NO 243] | 440 | 96 |
| ZGPPISIDLPLHLLRKMIEIEKQEKEKQQATTNARLLDRV (C-terminal amide) [SEQ ID NO 239] | 587 | 80 |
| ZGPPISIDLPHQLLRKMIEIEKQEKEKQQAANNRLLLDTI (C-terminal amide) [SEQ ID NO 212] | 445 | 100 |
| ZGPPISIDLPYFLLRKMIEIEKQEKEKQQAANNRLLLDTI (C-terminal amide) [SEQ ID NO 220] | 63.6 | 81 |
| ZGPPISIDLPQFLLRKMIEIEKQEKEKQQAANNRLLLDTI (C-terminal amide) [SEQ ID NO 221] | 236 | 100 |
| ZGPPISIDLPFHLLRKMIEIEKQEKEKQQAANNALLLATI (C-terminal amide) [SEQ ID NO 229] | 298 | 100 |
| ZGPPISIDLPQYLLRKMIEIEKQEKEKQQAANNALLLATI (C-terminal amide) [SEQ ID NO 227] | 918 | 18 |
| ZGPPISIDLPTYLLRKMIEIEKQEKEKQQAANNALLLDTI (C-terminal amide) [SEQ ID NO 232] | 1000 | 7 |
| ZGPPISIDLPLHLLRKMIEIEKQEKEKQQAANNALLLDTI (C-terminal amide) [SEQ ID NO 240] | 915 | 80 |
| ZGPPISIDLPHFLLRKMIEIEKQEKEKQQAANNRLLLDTI (C-terminal amide) [SEQ ID NO 219] | 80.9 | 100 |
| ZGPPISIDLPYYLLRKMIEIEKQEKEKQQAANNALLLDTI (C-terminal amide) [SEQ ID NO 226] | 315 | 95 |
| ZGPPISIDLPAFLLRKMIEIEKQEKEKQQAANNRLLLDTI (C-terminal amide) [SEQ ID NO 222] | 384 | 95 |
| ZGPPISIDLPFYLLRKMIEIEKQEKEKQQAANNALLLATI (C-terminal amide) [SEQ ID NO 231] | 94 | 100 |
| ZGPPISIDLPQWLLRKMIEIEKQEKEKQQAANNRLLLDTI (C-terminal amide) [SEQ ID NO 213] | 1000 | 76 |

| Binder | CRF1R EC50 [nM] | CRF1R Emax % [%] |
| --- | --- | --- |
| ZGPPISIDLPWWLLRKMIEIEKQEKEKQQAANNRLLLDTI (C-terminal amide) [SEQ ID NO 216] | 49.8 | 98 |
| ZGPPISIDLPFWLLRKMIEIEKQEKEKQQAANNRLLLDTI (C-terminal amide) [SEQ ID NO 217] | 94.7 | 100 |
| ZGPPISIDLPTYLLRKMIEIEKQEKEKQQAANNALLLATI (C-terminal amide) [SEQ ID NO 233] | 1000 | 11 |
| ZGPPISIDLPQYLLRKMIEIEKQEKEKQQAANNALLLDTI (C-terminal amide) [SEQ ID NO 224] | 1000 | 27 |
| ZGPPISIDLPIYLLRKMIEIEKQEKEKQQAANNALLLATI (C-terminal amide) [SEQ ID NO 237] | 1000 | 18 |
| ZGPPISIDLPYYLLRKMIEIEKQEKEKQQAANNALLLATI (C-terminal amide) [SEQ ID NO 225] | 220 | 97 |
| ZGPPISIDLPLWLLRKMIEIEKQEKEKQQAANNRLLLDTI (C-terminal amide) [SEQ ID NO 218] | 98.4 | 100 |
| ZGPPISIDLPLHLLRKMIEIEKQEKEKQQAANNALLLATI (C-terminal amide) [SEQ ID NO 241] | 308 | 99 |
| ZGPPISIDLPFHLLRKMIEIEKQEKEKQQAANNALLLDTI (C-terminal amide) [SEQ ID NO 228] | 276 | 100 |
| ZGPPISIDLPLELLRKMIEIEKQEKEKQQAANNALLLATI (C-terminal amide) [SEQ ID NO 234] | 434 | 96 |
| ZGPPISIDLPFYLLRKMIEIEKQEKEKQQAANNALLLDTI (C-terminal amide) [SEQ ID NO 230] | 219 | 100 |
| ZGPPISIDLPIYLLRKMIEIEKQEKEKQQAANNALLLDTI (C-terminal amide) [SEQ ID NO 236] | 1000 | 15 |
| ZGPPISIDLPLELLRKMIEIEKQEKEKQQAANNALLLDTI (C-terminal amide) [SEQ ID NO 235] | 806 | 70 |
| ZGPPISIDLPFFLLRKMIEIEKQEKEKQQAANNRLLLDTI (C-terminal amide) [SEQ ID NO 223] | 48.1 | 81 |
| ZGPPISIDLPYWLLRKMIEIEKQEKEKQQAANNRLLLDTI (C-terminal amide) [SEQ ID NO 215] | 188 | 100 |
| IVLSLDVVIGLLQILLEQARARAAREQATTNARILARV-NH2 [SEQ ID NO 214] | 100 | 4 |
